Substitutions are numbered along the chain they refer to. Values belong to the binder of their own block, whether it stands above or below them.
Tests used:
[1] = target: T1, human ASGR-1 carbohydrate binding domain (CBD) (148-291) (human, UniProt P07306 148-291); experiment: X-ray crystal structure of the complex, 2.6 A
T1 construct: also called ASGR-1 CBD; ASGR-1 CRD
T1 sequence: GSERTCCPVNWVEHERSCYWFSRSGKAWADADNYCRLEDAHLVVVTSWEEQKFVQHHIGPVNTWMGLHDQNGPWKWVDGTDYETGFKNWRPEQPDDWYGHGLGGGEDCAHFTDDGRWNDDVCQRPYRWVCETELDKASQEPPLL
Excerpt: 2. The dataset was collected from a single crystal on beamline ID22 at the Argonne National Laboratory and processed with XDS/CCP4;
4. The 194C10 Fab/ASGR-1 CBD complex structure was solved by molecular replacement with the program Phaser; and […]

[2] = target: T2, Human ASGR-2 (human, UniProt P07307 1-311); experiment: FACS on transfected HEK 293 cells; Y = signal at least 2x irrelevant IgG
T2 construct: Expressed on HEK 293 cells; cDNA GenBank NM_080913.3; also called huASGR-2; hASGR-2
T2 sequence: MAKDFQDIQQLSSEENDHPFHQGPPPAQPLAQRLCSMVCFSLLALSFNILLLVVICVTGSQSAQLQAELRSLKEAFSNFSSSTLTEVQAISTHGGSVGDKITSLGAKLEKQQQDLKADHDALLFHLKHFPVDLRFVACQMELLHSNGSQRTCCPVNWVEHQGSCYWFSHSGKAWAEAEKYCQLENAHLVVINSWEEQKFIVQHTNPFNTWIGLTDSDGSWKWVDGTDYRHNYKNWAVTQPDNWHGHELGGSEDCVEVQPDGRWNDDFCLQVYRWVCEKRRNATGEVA
Experimental: Human ASGR-1-specific, ligand competing antibody samples were tested for binding to ASGR-1 from other species (cynomologus monkey ASGR-1, mouse ASGR-1, rat ASGR-1, dog ASGR-1, and pig ASGR-1) as well as to human ASGR-2 in FACS binding assays at normalized antibody concentrations. For cell-based assays, HEK 293 cells expressing the appropriate antigen of interest were mixed with antibody sample or controls, incubated for 1 hour at 4° C., and then washed twice. Cells with bound antibody were then incubated with Alexa Fluor® 647 IgG Fc fragment-specific detection antibody and 7-AAD viability stain for 15 minutes at 4° C., washed once and resuspended in FACS buffer. Samples were analyzed using a BD Accuri™ Flow Cytometer and an Intellicyt HyperCyt Autosampler. As a negative control, supernatants and controls were also screened against HEK 293 cells transfected with empty parental vector. […] For membrane-prep binding assays, ASGR-1 species specific membrane preps were used to coat LumAvidin® microspheres (beads) and tested for binding to selected hybridoma supernatants or controls. Briefly, ASGR-1 species specific membrane preps were incubated with streptavidin-coated LumAvidin® beads for 45 minutes in the dark at room temperature and washed twice. Beads were resuspeneded in FACS buffer containing Stabilguard®. […] Samples were analyzed using an Intellicyt iQue™ Screener Platform. […]

[3] = target: T3, Cyno ASGR-1 (cynomolgus monkey, UniProt P07306 1-291 (human entry)); experiment: FACS on transfected HEK 293 cells or membrane preps on beads; Y = signal at least 2x irrelevant IgG
T3 construct: Expressed on HEK 293 cells or as membrane prep on beads; cDNA from XP_005582755; also called cynomologus monkey ASGR-1
T3 chain: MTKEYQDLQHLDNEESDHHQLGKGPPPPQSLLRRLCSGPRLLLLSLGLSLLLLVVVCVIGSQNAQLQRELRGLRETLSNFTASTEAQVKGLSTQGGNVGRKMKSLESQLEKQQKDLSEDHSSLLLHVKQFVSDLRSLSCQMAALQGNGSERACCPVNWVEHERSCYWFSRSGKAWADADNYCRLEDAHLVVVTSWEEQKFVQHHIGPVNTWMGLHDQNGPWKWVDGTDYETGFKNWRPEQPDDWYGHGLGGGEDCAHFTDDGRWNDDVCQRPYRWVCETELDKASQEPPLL
Experimental: (§1) Human ASGR-1-specific, ligand competing antibody samples were tested for binding to ASGR-1 from other species (cynomologus monkey ASGR-1, mouse ASGR-1, rat ASGR-1, dog ASGR-1, and pig ASGR-1) as well as to human ASGR-2 in FACS binding assays at normalized antibody concentrations. For cell-based assays, HEK 293 cells expressing the appropriate antigen of interest were mixed with antibody sample or controls, incubated for 1 hour at 4° C., and then washed twice. Cells with bound antibody were then incubated with Alexa Fluor® 647 IgG Fc fragment-specific detection antibody and 7-AAD viability stain for 15 minutes at 4° C., washed once and resuspended in FACS buffer. Samples were analyzed using a BD Accuri™ Flow Cytometer and an Intellicyt HyperCyt Autosampler. As a negative control, supernatants and controls were also screened against HEK 293 cells transfected with empty parental vector. […] For membrane-prep binding assays, ASGR-1 species specific membrane preps were used to coat LumAvidin® microspheres (beads) and tested for binding to selected hybridoma supernatants or controls. Briefly, ASGR-1 species specific membrane preps were incubated with streptavidin-coated LumAvidin® beads for 45 minutes in the dark at room temperature and washed twice. Beads were resuspeneded in FACS buffer containing Stabilguard®. Antigen-bound beads were then incubated with normalized antibody sample for 1 hour in the dark at room temperature, washed twice, incubated with Alexa Fluor® 488 IgG Fc fragment-specific detection antibody for 15 minutes in the dark at room temperature, washed once and finally resuspended in FACS buffer. Samples were analyzed using an Intellicyt iQue™ Screener Platform. FACS buffer supplemented with 1 mM Calcium Chloride was used in all steps. As a negative control, supernatants and controls were also screened against a non-ASGR-1 antigen membrane prep coated on the LumAvidin® beads.

[4] = target: T4, Dog ASGR-1 (dog); experiment: as above
T4 construct: Expressed on HEK 293 cells or as membrane prep on beads; cDNA GenBank XM_546579
T4 chain: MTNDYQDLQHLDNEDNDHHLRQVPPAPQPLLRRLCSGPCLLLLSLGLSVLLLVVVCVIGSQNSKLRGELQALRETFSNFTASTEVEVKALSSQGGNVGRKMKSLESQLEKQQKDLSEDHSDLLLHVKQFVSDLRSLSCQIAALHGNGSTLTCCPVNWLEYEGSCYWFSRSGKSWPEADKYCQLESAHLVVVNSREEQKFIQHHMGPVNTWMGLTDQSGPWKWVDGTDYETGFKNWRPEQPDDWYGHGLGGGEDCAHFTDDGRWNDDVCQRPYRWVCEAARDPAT
Experimental: as §1

[5] = target: T5, Pig ASGR-1 (pig); experiment: as above
T5 construct: Expressed on HEK 293 cells or as membrane prep on beads; cDNA GenBank NM_001244458
T5 chain: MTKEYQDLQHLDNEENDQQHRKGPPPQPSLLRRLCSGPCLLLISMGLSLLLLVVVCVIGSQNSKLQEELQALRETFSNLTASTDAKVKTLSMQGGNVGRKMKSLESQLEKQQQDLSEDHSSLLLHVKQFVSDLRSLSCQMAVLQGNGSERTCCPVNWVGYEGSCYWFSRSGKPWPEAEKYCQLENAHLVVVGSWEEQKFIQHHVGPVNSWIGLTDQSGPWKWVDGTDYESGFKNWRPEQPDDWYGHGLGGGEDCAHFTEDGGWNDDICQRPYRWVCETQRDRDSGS
Experimental: as §1

[6] = target: T6, Soluble ASGR-1 (human, UniProt P07306 62-291, biotinylated); experiment: limited antigen binding assay; biotinylated soluble ASGR-1 coated at 2.5 ng/mL on LumAvidin beads, FACS
T6 construct: Soluble recombinant protein; also called recombinant, soluble ASGR-1 biotinylated protein
T6 sequence: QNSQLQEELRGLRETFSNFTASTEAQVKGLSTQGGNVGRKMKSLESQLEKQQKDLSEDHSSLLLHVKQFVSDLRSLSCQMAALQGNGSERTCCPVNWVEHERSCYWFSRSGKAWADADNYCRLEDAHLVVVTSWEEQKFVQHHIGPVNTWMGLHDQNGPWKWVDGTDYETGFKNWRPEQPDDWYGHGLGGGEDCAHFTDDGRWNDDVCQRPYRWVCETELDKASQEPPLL
Experimental: To assess antibody and antigen interaction strength (relative binding affinity), ASGR-1 specific, ligand competing antibody hybridoma supernatants were tested in a limiting antigen binding assay. Titrated amounts of recombinant, soluble ASGR-1 biotinylated protein was incubated with streptavidin-coated LumAvidin Beads® for 45 minutes in the dark at room temperature and washed twice. Beads were resuspeneded in FACS buffer containing Stabilguard® and 0.05% Sodium Azide. Antigen-bound beads were then incubated with normalized hybridoma supernatant sample or controls for 18 hours in the dark at room temperature, washed twice, incubated with Alexa Fluor® 488 IgG fragment-specific detection antibody for 15 minutes in the dark at room temperature, washed once and finally resuspended in FACS buffer. Samples were analyzed using an Intellicyt iQue™ Screener Platform. FACS buffer supplemented with 1 mM Calcium Chloride was used in all steps. […] In this assay method, the antibody binding signal correlates with antibody affinity. Antibody binding data for a representative antigen coating concentration that fell in the linear range of the instrument signal detection is shown in Table 7.2. The degree of antibody binding to the target (ASGR-1) correlates with the measured fluorescent intensity and thus allows a relative comparison of affinities across the panel.

[7] = target: T7, Mouse ASGR-1 (mouse, UniProt P34927 1-284); experiment: FACS on transfected HEK 293 cells or membrane preps on beads; binding = signal at least 2x irrelevant IgG
T7 construct: Expressed on HEK 293 cells or as membrane prep on beads; cDNA GenBank BC022106.1; also called muASGR-1; mASGR-1
T7 sequence: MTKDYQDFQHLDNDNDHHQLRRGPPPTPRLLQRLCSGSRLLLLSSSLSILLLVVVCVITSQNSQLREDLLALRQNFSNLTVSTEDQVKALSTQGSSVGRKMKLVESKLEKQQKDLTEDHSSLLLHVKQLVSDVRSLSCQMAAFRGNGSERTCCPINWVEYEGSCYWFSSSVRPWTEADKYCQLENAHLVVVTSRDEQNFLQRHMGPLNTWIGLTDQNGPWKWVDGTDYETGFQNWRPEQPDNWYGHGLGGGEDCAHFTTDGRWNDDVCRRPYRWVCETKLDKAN
Experimental: as §1

[8] = target: T1, human ASGR-1 carbohydrate binding …; experiment: X-ray crystal structure, legend of FIG. 25
[9] = target: T8, human ASGR-1 (full length, expressed on cells) (human, UniProt P07306 1-291); experiment: flow cytometry; biotinylated ligand on CHO-S cells stably expressing ASGR-1, detected with streptavidin-AF647
T8 construct: single point mutants were made in the CBD in the context of full-length ASGR-1; also called hASGR-1; huASGR-1
T8 sequence: T3 chain with G22R, S30P, R33Q, A64S, R68E, L77F, A152T

[10] = target: T1, human ASGR-1 carbohydrate binding …; experiment: X-ray crystal structure of the complex, 2.1 A

B1: 194C10 Fab (Fab, V domains shown)
VH: QVQLQQWGAGLLKPSETLSLTCAVSGGSFRYYYWSWIRQPPGKGLEWFGEINHAGSTNYNPSLKSRVTISIDTSKNQFSLKLRSVTAADTAVYYCARDYGAFDIWGQGTMVTVSS
VL: EIVLTQSPGTLSLSPGERATLSCRASPSVNSGYLAWYQQKPGQTPRLLIFGASSRATGIPDRFSASGSGADFTLTISRLEPEDFAVYFCQQYESSPWTFGQGTKVEIKR
notes: also called Fab fragment of 194C10
- binding result [1]: binds

B2: 7F4 (antibody, V domains shown)
VH: QLQLQESGPGLVKPSETLSLTCTVSGGSISRSSYYWGWIRQPPGKGLEWIGNIYYSGATYYNPSLKSRVTISVDTSTNQFSLKLSSVTAADTAVYYCARHSGSWSLDYWGQGTLVTVSS
VL: DIQMTQSPSSLSASVGDRVTITCRTSQGIRNDLGWYQQKPGKAPKRLIYAASNLQSGVPSRFSGSGSGTEFTLTISSLQPEDFATYYCLQHSAYPLTFGGGTKVEIK
notes: Tested as hybridoma supernatant at normalized concentration
- binding result [2]: binds
- binding result [3]: binds
- binding result [4]: binds
- binding result [5]: binds
- FACS Geomean [6]: 4910 FACS Geomean
- binding result [7]: no binding

Next, values leading:

- binding result [8]: binds
B3: 4A2 Fab (Fab, V domains shown)
VH: QVQLVQSGTEVKKPGASVKVSCKASGYTFTNYDINWVRQATGQGLEWMGWMHPNSGNTGYAQKFQGRVTLTRDTSISTAYMELSSLRSEDTAVYYCASSSGWYYFDYWGQGTLVTVSS
VL: DIVMTQSPDSLAVSLGERATINCKSSQSILHSSNNNNYLAWFQQKPGQPPKLLLYWASTRESGVPDRFSGSGSGTDFTLTISSLQPEDVAVYYCQQYYNTPVTFGPGTKVGIKR
notes: Expressed directly as a Fab, with a double stop codon at the end of the CH1 domain; also called Fab fragment of 4A2

- EC50 [9]: 10.7 nM
B4: desialylated, biotinylated asialofetuin (bovine fetuin, AHSG) (ligand, UniProt P12763 19-359, looked up)
chain: IPLDPVAGYKEPACDDPDTEQAALAAVDYINKHLPRGYKHTLNQIDSVKVWPRRPTGEVYDIEIDTLETTCHVLDPTPLANCSVRQQTQHAVEGDCDIHVLKQDGQFSVLFTKCDSSPDSAEDVRKLCPDCPLLAPLNDSRVVHAVEVALATFNAESNGSYLQLVEISRAQFVPLPVSVSVEFAVAATDCIAKEVVDPTKCNLLAEKQYGFCKGSVIQKALGGEDVRVTCTLFQTQPVIPQPQPDGAEAEAPSAVPDAAGPTPSAAGPPVASVVVGPSVVAVPLPLHRAHYDLRHTFSGVASVESSSGEAFHVGKTPIVGQPSIPGGPVRLCPGRIRYFKI
modifications: desialated with C. perfringens and A. ureafaciens neuraminidases; biotinylated with Innolink Biotin 354S
notes: also called bn-asialofetuin; protein ligand

- binding result [10]: binds
B5: 22G5 Fab (Fab, V domains shown)
VH: EVQLLESGGGLVQPGGSLRLSCAASGFTFSSYAMNWVRQAPGMGLEWVSVISRSGGYTYYADSVKGRFTISRDNSKNTLYLQMNSLRAEDTAVYYCASRLAVAGSEAFDIWGQGTLVTVSS
VL: DIQMTQSPSSLSASVGDRVTITCRASQNISSYLNWYQQKQGKAPKLLIYAASSLQNGVPSRFSGRGSGTDFTLTISSLQPEDFATYYCQQSYRTPLFTFGPGTKVDFK
modifications: N-acetylglucosamine (NAG100) is listed among the light chain boundary residues
notes: Made by cleaving the 22G5-IgG4 mAb with papain; also called Fab fragment of 22G5

— US20190248902A1 (published 2019)
